Results from patent US20090162848A1, “Noxin, a novel stress-induced gene involved in cell cycle and apoptosis” (COLD SPRING HARBOR LABORATORY, priority 2007, published 2009).

Key:
[1] = test system: MEFs from p53-deficient mice; assay: DNA synthesis in p53-deficient MEFs expressing noxin; assay type: cell-based, mouse
Protocol: Noxin action was also analyzed in p53-deficient MEFs.

[2] = test system: NIH3T3 cells; assay: Cell cycle distribution of pFLAG-noxin transfected cells by flow cytometry; assay type: cell-based, mouse; details: anti-FLAG staining, DNA content
Protocol: After transfection with pFLAG-noxin or pcDNA3 vector, cell division was arrested with three different treatments (nocodazole, aphidicolin, or low concentration of serum). Cells were stained with anti-FLAG antibody and FITC-conjugated anti-mouse IgG antibody after permeabilization. Cell cycle distributions of untransfected and transfected cells were analyzed by DAPI staining and flow cytometry.

[3] = test system: p53; assay: p53 levels in transfected cells by immunocytochemistry and flow cytometry; assay type: cell-based
Protocol: The cells were labeled with […] (BrdU) (10 μM) and incubating for the time periods indicated. The cells were collected from plates by trypsin digestion were suspended in saline and fixed with 70% ethanol. After washing with PBS containing 0.05% BSA, 1×10^6 cells were incubated with FITC-conjugated anti-BrdU antibody (Pharmingen, 1:500) for 1 hr, suspended in PBS-BSA with 5 μg/ml propidium iodide (PI) and 20 μg/ml RNase A, and incubated further for 30 min at room temperature. For the bivariate cell cycle analysis, cells were analyzed using LSRII flow cytometer ([…]). […] Cells were analyzed for PE, FITC, and GFP fluorescence by flow cytometry.
Cells were transfected with pFLAG-noxin- or GFP-expressing plasmids and the levels of p53 were determined using immunocytochemistry and flow cytometry. […] 13a-c: which were stained with anti-FLAG and anti-p53 primary antibodies and ALEXA Fluor 596- and 488-conjugated secondary antibodies, respectively. […] 14a-d: Cells transfected with pFLAG-noxin (upper panels) and pEGFP (taken as control; lower panels) that were stained with anti-FLAG and anti-p53 primary antibodies, and PE- and FITC-conjugated secondary antibodies. Then Noxin-FLAG- or EGFP-negative (left panels) and positive (right panels) cells were analyzed for the amount of p53 protein.

[4] = test system: NIH3T3 cells; assay: BrdU incorporation (DNA synthesis) in transfected versus untransfected NIH3T3 cells; assay type: cell-based, mouse; details: BrdU labeling for 24 h
Protocol: In addition, constructs coding for cyan fluorescent protein with a nuclear localization signal (CFP-nuc), yellow fluorescent protein fused to actin (YFP-actin), or vector construct alone were used as controls. Cells were then labeled with BrdU for 24 h and analyzed cells in situ by immunocytochemistry for BrdU and noxin (or other listed proteins) (FIG. 11A-C). In the figures, signals from anti-FLAG antibodies are seen in red; anti-BrdU antibodies are green; Hoechst 33342 (blue) was used for nuclear counter-staining. […] Recombinant protein was detected on a Western blot using the anti-FLAG antibody.

B1: noxin: noxin tagged with the FLAG epitope at its N-terminus, expressed from plasmid pFLAG-noxin (mouse, SEQ ID NO: 2) (protein)
chain: MNKRRKFLFASVLAVQNSNFIYPSCQRCFSKIILESKRFTCPKCGSSGDTGSTNYRYKLSLKVAESSKLFFITVFGSCLDTFFGLTATGLHRYLEDSIKNLETLDSGRTQSLLTTAVEKCFVGQSFVFGVTNFGDVCGHDSDSSNFQQPCCKHRGEVRTLVASQIILPSPHVKGFTVIAYLHPLLHKKPHCGSQEHSSQSLTSDDSDSDLNNIQGSGNTSWFSESSVGEDFFRYWEPSLELTSSDSQVTSSDDFPASKQIMASGTPNQNRHCISVSEVTSSKNCHDSLQSLWSLHSCMDKNNTTGKLGEELGLPSPVCNSCHESRLSDSHFFPSQMQEPFEEHNLECYSKAEKNDYSQYDIACYQHHEVNTTPILQQRSSAFSLSSLKPEETANPSQNSDSLIWDDLPLSESLNKFLAVVESEVAVTEIDAKNRKQGMDKSIDKCHKNYSRLSLTPWRNTRALNTSCFSLRSSQAMMKDSGKEALFSNCKSNSSPHIQKESKADKTEAAVSIAGSRSDISEDFLPDTCSSALFTSSKDREAFITQKRTSGVLQQRNEISCRPSTSISDCSDLRSRYFTGCGQKLHSGTKGKLAIQNCSKKYSDASDLHKLENKHRWPKKEDDNFTICRKLTYPLETLCSSPESINTSKEMPYRPSNNNLTPSSSGDHEGSYNASAGLFDYIAKDKDIGTEITKIPQDNLLPLEVPCTENYPINENRGQPSQKPSLQSISPSRYSRPRSQSDSECDFEESQDFVPCSQSTPVAGFHQRIHGLNGASKILPSIYSNHNANYKNRKNSPLTGQYQATSACSKNVKAFRQKPESPFVSSLTQANVFNHCPAAESLGNDVDEWVPPTTKKVFISDILGFRVMGLRKCLDLHYSPDPKELPRKKLIKVTHKTNI
modifications: left off: small tags and cut ends
B1 was tested, and the “suppression of DNA synthesis” value [1] was “effective”, the “cell cycle phase of cells expressing the transfected gene” value [2] was “arrested in G1 or early S phase” and the “p53 levels in cells that received the gene” value [3] was “increased”. The “fraction of BrdU-positive cells in transfected cells, % of the value for the untransfected cells” value [4] was 24%.
